In the data set the target is T1, GCN4 basic region peptide with 3-residue linker (monomeric) (UniProt P03069 SEQ:1-24).
T1 chain: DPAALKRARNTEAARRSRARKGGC
As to the kind of experiment: EMSA; disulfide-tethered complex, reduction gel shift with 2-ME or DTT, pH 7.5 or 8.5; outcome only in figure. To be noted: protein: synthetic; tags: synthetic peptide, disulfide-tethered to DNA through linker thiol. The procedure:
To test if the reduction potential of the disulfide bond corresponds to the affinity of the peptide for the adjacent DNA sequence, wild-type and mutant double-stranded DNA-peptide complexes were incubated in the presence of reducing agents 2-mercaptoethanol (2-ME) or dithiothreitol (DTT). (FIG. 4) The free (lower bands) vs. coupled DNA molecules (upper bands) were resolved on 20% nondenaturing polyacrylamide gel after. The wild-type peptide-DNA complex (wt) was consistently more resistant to reduction than the complex having mutation in either peptide (L, P) or DNA sequence (M3). Peptide-DNA complexes differ with respect to the gel mobility as well. The mutant complexes (L, P, M3) have lower gel mobility than the wild-type complex (wt), although the corresponding free (uncomplexed) DNA molecules run at the same speed.
Annealing of the oligonucleotide-peptide complex with the complementary oligonucleotide was done as described above, in the binding buffer of the same composition and desired pH (7.5 or 8.5). 2-ME or DTT was added and reactions were incubated at defined temperature in a water bath. Glycerol-running dye mixture was added (final concentration of glycerol is 5%) and reactions were loaded on 20% nondenaturing gel and run at low voltage (up to 120 V) for 16–24 hours at room temperature. (See FIG. 4).
(In EMSA bound probe runs differently from free probe, usually more slowly.)

B1: WT GCN4 half-site 39-mer (dsDNA)
DNA 1: AAGGTTAAACGTGCAAGTCATCGGTATAGGTCGAGAAGT
DNA 2: ACTTCTCGACCTATACCGATGACTTGCACGTTTAACCTT
modifications: N6-thioalkyl-dA adjacent to the half-site (disulfide tether)
Turning to B1, the binding result is “binds”.

Values taken from patent US5783384, “Selection of binding-molecules” (President and Fellows of Harvard College).
